Results on one protein are retold here after publication PMC6925385, “Dual role of a GTPase conformational switch for membrane fusion by mitofusin ubiquitylation” (Life Science Alliance, 2019).

The data set concerns the molecule itself. The data set can be described thus: sucrose gradient centrifugation; crude mitochondrial extracts solubilized with 1% digitonin at low protein density (pellet in 500 μl, 10× less dense); 5-25% sucrose gradient, 14-16 h at 4°C; fractions blotted for HA.

B1: HA-tagged Fzo1 (yeast mitofusin), wild type (natural protein, yeast (strains isogenic to S288c), UniProt P38297 1-855, looked up)
chain: MSEGKQQFKDSNKPHKDSTDQDDDAATIVPQTLTYSRNEGHFLGSNFHGVTDDRTTLFDGEEGRREDDLLPSLRSSNSKAHLISSQLSQWNYNNNRVLLKRSILKTQAFMDQLQEENNIRPIFIAANDEREKLHVLQLNIKLDGQYNTKEKNGFNIEKKALSKLFHSQIVSVTNHLNALKKRVDDVSSKVFITGDVNTGKSALCNSLLKQRLLPEDQLPCTNVFSEILEARENDGIEEVHAIPLNIAPTLKEAIDMYSIQNPKTYEIHTLKELPDLVPQNGKYALLKIYIKDDKRPASTSLLRNGTVDISLIDSPGLNMDSLQTAEVMSRQEEIDLVIFVVNAENQLTLSAKEFISLASREKKLMFFVVKKFDKIRDKQRCKELILKQIRDLSPETYKRAADFVHFVSKNGDELPHYHNENDNEDHGDRKPDDDPYSSSDPDPDFDSLEDSLRNFVLKKRSLSKLLPAKTYLSKLLSDIIMISKSNMKMYSEEEIKINEQLETLRPEILSARAKCNDLTTSVDQMAEQTITMTYNNTKEALLNALDVPLHEYPKYQGLGQIYDFIFSTEAFIANQIDESIGSSELFAKQKTDLLVKKIYEIGKNELGDDFMCERVFRSELMFRKRKHLIGKRLKVSLSITDLFAPTWKGFLSYLSWQKPVTAPLPDIEGQTNEGQIGLMKYLGLKNYPLTQYWSRPSLLFTSKIPTLTLYFLGSTKVVGNIILNGIKLSSWSSLKKLSVPVIVVGSLLGLTYLIHDLPRALPMNLSIKYKRKLQELDYIHLNAQRTSNEVRDVLRVPTREILRSCEIIMDKKQITKKELENKKESNLLSIKFFQSLYEGTVAQKLMVEEINLDID
modifications: unmodified and ubiquitylated forms both present; K48-linked ubiquitin chains conjugated to lysine 398
notes: Fzo1, the yeast mitofusin (large dynamin-related GTPase of the mitochondrial outer membrane); The immunoprecipitate holds a mix of unmodified and ubiquitylated Fzo1; also called HA-Fzo1; wt Fzo1; source: yeast (isogenic to S288c), genomically HA-tagged or expressed from the centromeric plasmid pRS316 in Δfzo1 cells; in solubilized crude mitochondrial extracts
In the case of B1, the “stoichiometry N” value is 2.
